This is an account of results in paper PMC6471826, “Cold-Adapted Glutathione S-Transferases from Antarctic Psychrophilic Bacterium Halomonas sp. ANT108: Heterologous Expression, Characterization, and Oxidative Resistance” (Marine Drugs, 2019).

The data set has as its system O=[N+]([O-])c1ccc(Cl)c([N+](=O)[O-])c1. Nature of the data set: purified protein. As to conditions: co-substrate GSH, CDNB 0.5-4.5 mM, 25 °C.

The Km is the concentration of substrate that gives half-maximal velocity. Broadly, the kcat/Km is the turnover number divided by the Michaelis constant. rHsGST (Halomonas sp.): the Km came to 2860 µM and the kcat/Km came to 18800 M⁻¹ s⁻¹.
